This is an account of results in paper PMC7144582.

In experiment [1] the target is CHIKV nsP3 hypervariable domain (HVD), aa 325-523, with C-terminal Twin-Strep-tag (chikungunya virus (CHIKV) strain 181-25). Put plainly: NMR titration.
For experiment [2], the target named is nsP3 Site 1 (Chikungunya virus), Q8JUX6. The experiment in a line: NMR.

In the case of CD2AP SH3-C domain (domain or fragment), the apparent KD, Site 2 in experiment [1] is 154 µM.

In the case of CD2AP SH3-A domain (domain or fragment), in experiment [1], the apparent KD, Site 2 came to 137 µM.

Regarding CD2AP SH3-B domain (domain or fragment), in experiment [1], the KD, Site 1 came to 4.5 µM and the apparent KD, Site 2 was 75.7 µM.

B1: CD2AP SH3-B, Q9Y5K6 (protein)
chain: TKKRQCKVLFEYIPQNEDELELKVGDIIDINEEVEEGWWSGTLNNKLGLFPSNFVKELEV
Consider B1, for which the Kd in experiment [2] was 4.5 µM. That is a single-digit micromolar value.

B2: CD2AP SH3-C, Q9Y5K6 (protein)
chain: KAKEYCRTLFAYEGTNEDELTFKEGEIIHLISKETGEAGWWRGELNGKEGVFPDNFAVQINE
Consider B2, for which the Kd in experiment [2] turned out to be 51.7 µM.

The Kd is the constant that tells how readily two partners part at equilibrium. Read a high Kd as weaker binding.
